Laboratory results taken from patent US7645740B2, “Peptide sequence found in Laminin 5 for treating skin impairments” (Laboratoires d'Anjou Centre National de la Recherche …, priority 2004, dated 2010).

Assay: Quantity of peptide immobilized on 96-well plates by amino acid analysis
Conditions: 18 hours at +4° C.
Description: The peptide was diluted in sterile PBS. Samples containing the peptide to be assayed were lyophilized by evaporation. They were deposited in a reactor and placed under vacuum in order to eliminate oxygen likely to oxidize certain amino acids. Hydrolysis of the peptide bonds was carried out in a hydrochloric acid mixture (HCL 6N, ⅔), trifluoroacetic acid (TFA, ⅓) at 150° C. for 45 minutes. Gas hydrolysis prevented contamination by ions present in the acids. The samples were then dried and dissolved in a suitable buffer for ion-exchange chromatography (sodium citrate). Ion-exchange chromatography makes it possible to separate amino acids according to their ionic strength and, on leaving the column, they react with a reagent (ninhydrin) to form a dyed complex with primary amines (violet, readable at 570 nm). Ninhydrin also reacts with secondary amines (proline, hydroxyproline) to form a yellow compound that can be read at 440 nm. Two separate chromatograms allow the samples to be analysed.
A semi-automatic Beckman 6300 analyser optimised for this analysis was used along with Beckman Gold software in order to quantify the chromatograms. […]
FIG. 17 gives the data obtained in the experiments aimed at identifying the assay conditions for the peptide deposited in 96-well plates and not immobilized. Five experiments were carried out with decreasing quantities of peptide, from 5 μg to 0.7 μg. […]

TALRIRATYGEY (Human laminin 5) [Peptide 1]
quantity of peptide remaining in the supernatant after immobilization, of quantity added (3.55 μg, 2.56 μg, 1.23 μg and 0.73 μg deposited): approximately 90%
mean quantity remaining in solution in the wells (Q1, average starting quantity 2.44 μg, five supernatants): 2.212 µg
